# Assay results reported in patent US20110207796.
# Molecular target: human alpha-synuclein (wild-type, recombinant)
protein,measurement,value
PLK4 (protein) MATCIGEKIEDFKVGNLLGKGSFAGVYRAESIHTGLEVAIKMIDKKAMYKAGMVQRVQNEVKIHCQLKHPSILELYNYFEDSNYVYLVLEMCHNGEMNRYLKNRVKPFSENEARHFMHQIITGMLYLHSHGILHRDLTLSNLLLTRNMNIKIADFGLATQLKMPHEKHYTLCGTPNYISPEIATRSAHGLESDVWSLGCMFYTLLIGRPPFDTDTVKNTLNKVVLADYEMPSFLSIEAKDLIHQLLRRNPADRLSLSSVLDHPFMSRNSSTKSKDLGTVEDSIDSGHATISTAITASSSTSISGSLFDKRRLLIGQPLPNKMTVFPKNKSSTDFSSSGDGNSFYTQWGNQETSNSGRGRVIQDAEERPHSRYLRRAYSSDRSGTSNSQSQAKTYTMERCHSAEMLSVSKRSGGGENEERYSPTDNNANIFNFFKEKTSSSSGSFERPDNNQALSNHLCPGKTPFPFADPTPQTETVQQWFGNLQINAHLRKTTEYDSISPNRDFQGHPDLQKDTSKNAWTDTKVKKNSDASDNAHSVKQQNTMKYMTALHSKPEIIQQECVFGSDPLSEQSKTRGMEPPWGYQNRTLRSITSPLVAHRLKPIRQKTKKAVVSILDSEEVCVELVKEYASQEYVKEVLQISSDGNTITIYYPNGGRGFPLADRPPSPTDNISRYSFDNLPEKYWRKYQYASRFVQLVRSKSPKITYFTRYAKCILMENSPGADFEVWFYDGVKIHKTEDFIQVIEKTGKSYTLKSESEVNSLKEEIKMYMDHANEGHRICLALESIISEEERKTRSAPFFPIIIGRKPGSTSSPKALSPPPSVDSNYPTRERASFNRMVMHSAASPTQAPILNPSMVTNEGLGLTTTASGTDISSNSLKDCLPKSAQLLKSVFVKNVGWATQLTSGAVWVQFNDGSQLVVQAGVSSISYTSPNGQTTRYGENEKLPDYIKQKLQCLSSILLMFSNPTPNFH,"Fold Change in Percent Synuclein Phosphorylation (ELISA, HEK-293 overexpression)",1 fold
same,"Proportion of total synuclein that is phoshorylated at ser-129 (ELISA, HEK-293 overexpression)",1.9%
same,"in vitro biochemical assay, phosphorylation of synuclein",PLK4 exhibiting no ability to phosphorylate synuclein
met proto-oncogene (hepatocyte growth factor receptor) (protein) KKRKQIKDLGSELVRYDARVHTPHLDRLVSARSVSPTTEMVSNESVDYRATFPEDQFPNSSQNGSCRQVQYPLTDMSPILTSGDSDISSPLLQNTVHIDLSALNPELVQAVQHVVIGPSSLIVHFNEVIGRGHFGCVYHGTLLDNDGKKIHCAVKSLNRITDIGEVSQFLTEGIIMKDFSHPNVLSLLGICLRSEGSPLVVLPYMKHGDLRNFIRNETHNPTVKDLIGFGLQVAKGMKYLASKKFVHRDLAARNCMLDEKFTVKVADFGLARDMYDKEYYSVHNKTGAKLPVKWMALESLQTQKFTTKSDVWSFGVLLWELMTRGAPPYPDVNTFDITVYLLQGRRLLQPEYCPDPLYEVMLKCWHPKAEMRPSFSELVSRISAIFSTFIGEHYVHVNATYVNVKCVAPYPSLLSSEDNADDEVDTRPASFWETS,"in vitro kinase reaction, phosphorylation of alpha-synuclein",shown to be incapable of directly phosphorylating alpha-synuclein
"adrenergic, beta, receptor kinase 1 (GRK2; BARK1) (protein) MADLEAVLADVSYLMAMEKSKATPAARASKKILLPEPSIRSVMQKYLEDRGEVTFEKIFSQKLGYLLFRDFCLNHLEEARPLVEFYEEIKKYEKLETEEERVARSREIFDSYIMKELLACSHPFSKSATEHVQGHLGKKQVPPDLFQPYIEEICQNLRGDVFQKFIESDKFTRFCQWKNVELNIHLTMNDFSVHRIIGRGGFGEVYGCRKADTGKMYAMKCLDKKRIKMKQGETLALNERIMLSLVSTGDCPFIVCMSYAFHTPDKLSFILDLMNGGDLHYHLSQHGVFSEADMRFYAAEIILGLEHMHNRFVVYRDLKPANILLDEHGHVRISDLGLACDFSKKKPHASVGTHGYMAPEVLQKGVAYDSSADWFSLGCMLFKLLRGHSPFRQHKTKDKHEIDRMTLTMAVELPDSFSPELRSLLEGLLQRDVNRRLGCLGRGAQEVKESPFFRSLDWQMVFLQKYPPPLIPPRGEVNAADAFDIGSFDEEDTKGIKLLDSDQELYRNFPLTISERWQQEVAETVFDTINAETDRLEARKKAKNKQLGHEEDYALGKDCIMHGYMSKMGNPFLTQWQRRYFYLFPNRLEWRGEGEAPQSLLTMEEIQSVEETQIKERKCLLLKIRGGKQFILQCDSDPELVQWKKELRDAYREAQQLVQRVPKMKNKPRSPVVELSKVPLVQRGSANGL","S129 phosphorylation, immunoblot (mAb 11A5), rank of signal",CKI>GRK6>PLK2>GRK4>GRK5>GRK2
same,"in vitro kinase reaction, phosphorylation of alpha-synuclein at serine 129",capable of phosphorylating alpha-synuclein specifically at serine 129 and did not phosphorylate serine 87 in vitro
G protein-coupled receptor kinase 6 (protein) MELENIVANTVLLKAREGGGGNRKGKSKKWRQMLQFPHISQCEELRLSLERDYHSLCERQPIGRLLFREFCATRPELSRCVAFLDGVAEYEVTPDDKRKACGRQLTQNFLSHTGPDLIPEVPRQLVTNCTQRLEQGPCKDLFQELTRLTHEYLSVAPFADYLDSIYFNRFLQWKWLERQPVTKNTFRQYRVLGKGGFGEVCACQVRATGKMYACKKLEKKRIKKRKGEAMALNEKQILEKVNSRFVVSLAYAYETKDALCLVLTLMNGGDLKFHIYHMGQAGFPEARAVFYAAEICCGLEDLHRERIVYRDLKPENILLDDHGHIRISDLGLAVHVPEGQTIKGRVGTVGYMAPEVVKNERYTFSPDWWALGCLLYEMIAGQSPFQQRKKKIKREEVERLVKEVPEEYSERFSPQARSLCSQLLCKDPAERLGCRGGSAREVKEHPLFKKLNFKRLGAGMLEPPFKPDPQAIYCKDVLDIEQFSTVKGVELEPTDQDFYQKFATGSVPIPWQNEMVETECFQELNVFGLDGSVPPDLDWKGQPPAPPKKGLLQRLFSRQDCCGNCSDSEEELPTRL,"S129 phosphorylation in vitro, kinases normalized by activity units",The most prominent result came from GRK6
same,"S129 phosphorylation, immunoblot (mAb 11A5), kinase:rAS 1:200 molar","Prominent signals came from GRK6, CKI, CKII and PLK2"
same,"S129 phosphorylation, immunoblot (mAb 11A5), rank of signal",CKI>GRK6>PLK2>GRK4>GRK5>GRK2
same,"in vitro kinase reaction, phosphorylation of alpha-synuclein at serine 129",capable of phosphorylating alpha-synuclein specifically at serine 129 and did not phosphorylate serine 87 in vitro
same,"phospho ser-129 in vitro, kinases normalized for molarity","roughly equivalent levels of phospho ser-129 between CKI, GRK6 and PLK2"
CDC7 cell division cycle 7-like 1 (protein) MEASLGIQMDEPMAFSPQRDRFQAEGSLKKNEQNFKLAGVKKDIEKLYEAVPQLSNVFKIEDKIGEGTFSSVYLATAQLQVGPEEKIALKHLIPTSHPIRIAAELQCLTVAGGQDNVMGVKYCFRKNDHVVIAMPYLEHESFLDILNSLSFQEVREYMLNLFKALKRIHQFGIVHRDVKPSNFLYNRRLKKYALVDFGLAQGTHDTKIELLKFVQSEAQQERCSQNKSHIITGNKIPLSGPVPKELDQQSTTKASVKRPYTNAQIQIKQGKDGKEGSVGLSVQRSVFGERNFNIHSSISHESPAVKLMKQSKTVDVLSRKLATKKKAISTKVMNSAVMRKTASSCPASLTCDCYATDKVCSICLSRRQQVAPRAGTPGFRAPEVLTKCPNQTTAIDMWSAGVIFLSLLSGRYPFYKASDDLTALAQIMTIRGSRETIQAAKTFGKSILCSKEVPAQDLRKLCERLRGMDSSTPKLTSDIQGHASHQPAISEKTDHKASCLVQTPPGQYSGNSFKKGDSNSCEHCFDEYNTNLEGWNEVPDEAYDLLDKLLDLNPASRITAEEALLHPFFKDMSL,"in vitro kinase reaction, phosphorylation of alpha-synuclein",shown to be incapable of directly phosphorylating alpha-synuclein
PLK3 (protein) MEPAAGFLSPRPFQRAAAAPAPPAGPGPPPSALRGPELEMLAGLPTSDPGRLITDPRSGRTYLKGRLLGKGGFARCYEATDTETGSAYAVKVIPQSRVAKPHQREKILNEIELHRDLQHRHIVRFSHHFEDADNIYIFLELCSRKSLAHIWKARHTLLEPEVRYYLRQILSGLKYLHQRGILHRDLKLGNFFITENMELKVGDFGLAARLEPPEQRKKTICGTPNYVAPEVLLRQGHGPEADVWSLGCVMYTLLCGSPPFETADLKETYRCIKQVHYTLPASLSLPARQLLAAILRASPRDRPSIDQILRHDFFTKGYTPDRLPISSCVTVPDLTPPNPARSLFAKVTKSLFGRKKKSKNHAQERDEVSGLVSGLMRTSVGHQDARPEAPAASGPAPVSLVETAPEDSSPRGTLASSGDGFEEGLTVATVVESALCALRNCIAFMPPAEQNPAPLAQPEPLVWVSKWVDYSNKFGFGYQLSSRRVAVLFNDGTHMALSANRKTVHYNPTSTKHFSFSVGAVPRALQPQLGILRYFASYMEQHLMKGGDLPSVEEVEVPAPPLLLQWVKTDQALLMLFSDGTVQVNFYGDHTKLILSGWEPLLVTFVARNRSACTYLASHLRQLGCSPDLRQRLRYALRLLRDRSPA,"Fold Change in Percent Synuclein Phosphorylation (ELISA, HEK-293 overexpression)",39.6 fold
same,"Proportion of total synuclein that is phoshorylated at ser-129 (ELISA, HEK-293 overexpression)",79.2%
same,"in vitro biochemical assay, phosphorylation of synuclein",PLK2 and PLK3 having extremely robust phosphorylation of synuclein
GRK4 (protein) MELENIVANSLLLKARQGGYGKKSGRSKKWKEILTLPPVSQCSELRHSIEKDYSSLCDKQPIGRRLFRQFCDTKPTLKRHIEFLDAVAEYEVADDEDRSDCGLSILDRFFNDKLAAPLPEIPPDVVTECRLGLKEENPSKKAFEECTRVAHNYLRGEPFEEYQESSYFSQFLQWKWLERQPVTKNTFRHYRVLGKGGFGEVCACQVRATGKMYACKKLQKKRIKKRKGEAMALNEKRILEKVQSRFVVSLAYAYETKDALCLVLTIMNGGDLKFHIYNLGNPGFDEQRAVFYAAELCCGLEDLQRERIVYRDLKPENILLDDRGHIRISDLGLATEIPEGQRVRGRVGTVGYMAPEVVNNEKYTFSPDWWGLGCLIYEMIQGHSPFKKYKEKVKWEEVDQRIKNDTEEYSEKFSEDAKSICRMLLTKNPSKRLGCRGEGAAGVKQHPVFKDINFRRLEANMLEPPFCPDPHAVYCKDVLDIEQFSVVKGIYLDTADEDFYARFATGCVSIPWQNEMIESGCFKDINKSESEEALPLDLDKNIHTPVSRPNRGFFYRLFRRGGCLTMVPSEKEVEPKQC,"S129 phosphorylation, immunoblot (mAb 11A5), rank of signal",CKI>GRK6>PLK2>GRK4>GRK5>GRK2
GRK7 (protein) MVDMGALDNLIANTAYLQARKPSDCDSKELQRRRRSLALPGLQGCAELRQKLSLNFHSLCEQQPIGRRLFRDFLATVPTFRKAATFLEDVQNWELAEEGPTKDSALQGLVATCASAPAPGNPQPFLSQAVATKCQAATTEEERVAAVTLAKAEAMAFLQEQPFKDFVTSAFYDKFLQWKLFEMQPVSDKYFTEFRVLGKGGFGEVCAVQVKNTGKMYACKKLDKKRLKKKGGEKMALLEKEILEKVSSPFIVSLAYAFESKTHLCLVMSLMNGGDLKFHIYNVGTRGLDMSRVIFYSAQIACGMLHLHELGIVYRDMKPENVLLDDLGNCRLSDLGLAVEMKGGKPITQRAGTNGYMAPEILMEKVSYSYPVDWFAMGCSIYEMVAGRTPFKDYKEKVSKEDLKQRTLQDEVKFQHDNFTEEAKDICRLFLAKKPEQRLGSREKSDDPRKHHFFKTINFPRLEAGLIEPPFVPDPSVVYAKDIAEIDDFSEVRGVEFDDKDKQFFKNFATGAVPIAWQEEIIETGLFEELNDPNRPTGCEEGNSSKSGVCLLL,"S129 phosphorylation, immunoblot (mAb 11A5)",Prominent signals came from all GRKs except for GRK7
same,"in vitro kinase reaction, phosphorylation of alpha-synuclein at serine 129",capable of phosphorylating alpha-synuclein specifically at serine 129 and did not phosphorylate serine 87 in vitro
same,phosphorylation of alpha-synuclein in vitro,GRK 7 was not able to phosphorylate at appreciable levels
